Experimental data as given in paper doi:10.1101/2023.10.24.563787 (bioRxiv, 2023).

Target: the molecule itself
Experiment: cryo-EM structure

B1: 3xFLAG-Lip1, small regulatory subunit of the yeast ceramide synthase (CerS) complex (natural protein, S. cerevisiae)
chain: PKIFNLFRVCFISLLLIAAVEYFKYGTRINYEWFHCTPIKEPQSGSVIKLWARGGPSCDKRGEYKTIVKRITRDYEPNDEHLSFCIIENDNVPPVHYPIHEDKGEPGYVAYVGYDTDSELVQELCADSTIYHM
In the case of B1, the “stoichiometry N” value is reported as 2.
